# According to patent US7482133B2, “Catalytic domains of β(1,4)-galactosyltransferase I having altered donor and acceptor specificities, domains that promote in vitro protein folding, and methods for their use” (The United States of America as represented by the …, priority 2003, dated 2009):
# Residue numbers refer to the chain shown, from its start.
# B1: Y289L_C342T: bovine Gal-T1 catalytic domain (residues 130-402), Tyr-289 exchanged with Leu, with Cys-342 to Thr mutation (protein)
# chain: SLTACPEESPLLVGPMLIEFNIPVDLKLIEQQNPKVKLGGRYTPMDCISPHKVAIIILFRNRQEHLKYWLYYLHPMVQRQQLDYGIYVINQAGESMFNRAKLLNVGFKEALKDYDYNCFVFSDVDLIPMNDHNTYRCFSQPRHISVAMDKFGFSLPYVQLFGGVSALSKQQFLSINGFPNNYWGWGGEDDDIYNRLAFRGMSVSRPNAVIGKTRMIRHSRDKKNEPNPQRFDRIAHTKETMLSDGLNSLTYMVLEVQRYPLYTKITVDIGTPS
# B2: human SRCDβ4Gal-T1: human stem region/catalytic domain β4Gal-T1, not mutated (protein, listed as Homo sapiens)
# chain: RDLSRLPQLVGVSTPLQGGSNSAAAIGQSSGDLRTGGARPPPPLGASSQPRPGGDSSPVVDSGPGPASNLTSVPVPHTTALSLPACPEESPLLVGPMLIEFNMPVDLELVAKQ
# B3: bovine CDβ4Gal-T1: catalytic domain (residues 130-402) of bovine β4Gal-T1 (protein, UniProt P08037 130-402, looked up, fragment)
# chain: B1 chain with I29V, L58P, M76I, V77L, L160Y, T213C
# modifications: catalytic domain
# notes: catalytic domain (residues 130-402) of bovine β4Gal-T1
# Legend:
# [1] = Gal-T specific activity assay; format: biochemical; settings: donor 500 μM; acceptor β-benzyl-GlcNAc 25 mM (10 mM for C342T); saturating conditions
# Procedure: (§1) For example, the galactose and N-acetylgalactosyltransferase activity of β(1,4)-galactosyltransferase I can be determined using the following assay conditions. […], 10 mM MnCl2, 10 mM Tris-HCl (pH 8.0), 500 μM UDP-Gal or UDP-GalNAc, and 20 ng of β(1,4)-galactosyltransferase I can be incubated at 37° C. for 10 minutes to promote coupling of a donor sugar to an acceptor sugar. While these conditions are provided as an example, it is understood that many other conditions may be used to chemically link a donor to an acceptor using the altered catalytic domains of the invention.
# (§2) Gal-T and GalNAc-T Enzyme Assays: The protein concentrations were measured using the Bio-Rad protein assay kit, based on the method of Bradford and further verified on SDS gel. […] The activities were measured using UDP-Gal or UDP-GalNAc as sugar nucleotide donors, and GlcNAc and Glc as the acceptor sugars. For the specific activity measurements, […], 10 mM MnCl2, 10 mM Tris-HCl, pH 8.0, 500 μM UDP-Gal or UDP-GalNAc, 20 ng of Gal-T1, and 0.5 μCl of [^3H]UDP-Gal or [^3H]UDP-GalNAc was used for each Gal-T or GalNAc-T reaction. The incubation was carried out at 37° C. for 10 min. […] The column was washed successfully with 300, 400, and 500 μl of water, and the column flow-through was diluted with Biosafe scintillation fluid; radioactivity was measured with a Beckman counter. A reaction without the acceptor sugar was used as a control. A similar assay was carried out to measure the GalNAc-T activity with Glc and other acceptors in the presence of 50 μM bovine LA (Sigma).
# [2] = GalNAc-T specific activity assay; format: biochemical
# Procedure: as §1, §2
# [3] = GlcNAc-T specific activity assay; format: biochemical; settings: donor 500 μM; acceptor β-benzyl-GlcNAc 25 mM
# [4] = Two-substrate kinetic constants, Gal-T reaction; format: biochemical
# Source text: (§3) Studies for Determining the Kinetic Constants: The true Km of the donor (KA) and of the acceptor (KB), the dissociation constant of the donor, Ki(a), and kcat were obtained using two-substrate analyses and the primary plots of five concentrations of donor (UDP-Gal or UDP-GalNAc) and five concentrations of acceptor, and the corresponding secondary plots of the intercepts and slopes. Initial rate conditions were linear with respect to time. A suitable range of donor and acceptor concentrations were chosen, which allowed an accurate Michaelis-Menten plot to be derived. The data were also analyzed for a general two-substrate system using the following equations (Zhang et al., Glycobiology, 9:815-822 (1999)) with the software EnzFitter, a Biosoft nonlinear curve-fitting program for Windows.
# (§4) [formula] Here v is the initial velocity and the rate equation for sequential symmetrical initial velocity pattern associated with Equation 1, an ordered or random equilibrium mechanism in which substrate A dissociates well from the E-S complex with a dissociation constant of Ki(a). Equation 2 is for asymmetric initial velocity pattern for a double displacement or “ping-pong” mechanism. The kinetic parameters KA, KB, Ki(a), and Vmax, were obtained from the fitted curves using the above rate equations. The graphical method and EnzFitter program gave very similar kinetic parameters. In the N-acetylgalactosamine transferase (GalNAc-T) assay, the maximum substrate concentrations used for UDP-GalNAc and GlcNAc were 1 and 200 mM, respectively. However, in the galactose transferase (Gal-T) assay, because of the limited solubility of GlcNAc in water, the concentration of GlcNAc was limited to no more than […] (which is 2-fold higher than its Km value), whereas up to 300 μM UDP-Gal were used.
# [5] = Two-substrate kinetic constants, GalNAc-T reaction; format: biochemical
# Source text: as §3, §4
# [6] = GalNAc-T activity in absence and presence of LA, acceptor GlcNAc; format: biochemical; settings: acceptor GlcNAc 100 mM, 500 μM UDP-GalNAc, 37° C., 10 minutes
# Procedure: (§5) Gal-T and GalNAc-T Enzyme Assays: The protein concentrations were measured using the Bio-Rad protein assay kit, based on the method of Bradford and further verified on SDS gel. […] The activities were measured using UDP-Gal or UDP-GalNAc as sugar nucleotide donors, and GlcNAc and Glc as the acceptor sugars. For the specific activity measurements, a 100-μl incubation mixture containing 50 mM β-benzyl-GlcNAc, 10 mM MnCl2, 10 mM Tris-HCl, pH 8.0, 500 μM UDP-Gal or UDP-GalNAc, 20 ng of Gal-T1, and 0.5 μCl of [^3H]UDP-Gal or [^3H]UDP-GalNAc was used for each Gal-T or GalNAc-T reaction. The incubation was carried out at 37° C. for 10 min. […] The column was washed successfully with 300, 400, and 500 μl of water, and the column flow-through was diluted with Biosafe scintillation fluid; radioactivity was measured with a Beckman counter. A reaction without the acceptor sugar was used as a control. […]
# [7] = GalNAc-T activity in absence and presence of LA, acceptor Glc; format: biochemical; settings: for GalNAc-T activity: acceptor Glc 100 mM, 500 μM UDP-GalNAc, 37° C., 10 minutes
# Procedure: as §5
# [8] = GalNAc-T activity in absence and presence of LA, acceptor Glucosamine; format: biochemical; settings: acceptor Glucosamine 100 mM, 500 μM UDP-GalNAc, 37° C., 10 minutes
# Procedure: as §5
# [9] = β4Gal-T1 enzyme assay of in vitro folded CD and SRCD proteins; format: biochemical
# Procedure: β4Gal-T1 Enzyme Assays: The in vitro assay for β4Gal-T1 enzyme activity was performed as described (Boeggeman et al., Glycobiology, 12:395-407 (2002)). The ^3H-labeled-UDP-Gal was used as sugar donor and GlcNAc as the sugar acceptor. A reaction without GlcNAc was used as a control.
# Binding of recombinant proteins to UDP-affinity column: UDP-agarose was used to bind the active proteins at 4° C. Columns containing 1 ml bed volume of UDP-agarose were pre-equilibrated with 10 ml of 25 mM cacodylic buffer, pH 7.6, containing 25 mM MnCl2. The renatured protein solutions (0.5 mg) were adjusted to the pre-equilibration buffer conditions and applied to the columns. After loading the sample, the pass-through was re-cycled. It was then analyzed for the unbound protein by SDS-PAGE. The columns were washed 3× with 1-ml portions of equilibration buffer. The bound protein was eluted with the elution buffer consisting of 25 mM cacodylic buffer, pH 7.6, 25 mM EDTA and 1 M NaCl. Fractions of 0.5 ml were collected from the columns, and aliquots were analysed by SDS-PAGE. For enzymatic analysis the appropriate fractions were pooled and dialysed against 50 mM Tris-HCl pH 8.0 at 4° C. […]
# [10] = Stability of the folded recombinant proteins; format: physicochemical; settings: after folding and purification from inclusion bodies
# Procedure: Mutation of the stem region of bovine β4Gal-T1 to inhibit proteolysis: The wild-type bovine SRCDβ4Gal-T1, which has Ser at position 96, was expressed in E. coli. […] The protein was electroblotted to polyvinylidene difluoride membrane, and the N-terminal sequence of the cleaved fragment was determined by Edman degradation at the Protein Chemistry Laboratory, NCI-Frederick. The N-terminal sequence of the fragment was determined as SRAPSNLD (SEQ ID NO: 21). This corresponds to the cleavage at Ser96 within the sequence region KPR^96SRAPSNLD (SEQ ID NO: 22). To prevent this proteolytic digestion within the stem region, we now constructed a mutant substituting Ala in place of Ser96. This prevented the cleavage within the stem region of bovine β4Gal-T1 keeping the recombinant protein intact for a long period of time. Even though, the experimental results described in this study are with the mutant bovine S96A-SRCDβ4Gal-T1 (FIG. 3A), for the sake of convenience in abbreviation this protein is simply referred to as bovine SRCDβ4Gal-T1.
# [11] = UDP-N-acetylgalactosamine → GlcNAc
molecule,measurement,setting,value
B1,UDP-galactose → GlcNAc Gal-T activity,[1],16.2 pmol/min/ng
same,galactose transferase versus N-acetylgalactosyltransferase activity,"[2]; comparison in words (Table III, FIG. 1)",equally strong galactose transferase and N-acetylgalactosyltransferase activities
same,UDP-GalNAc → GlcNAc GalNAc-T activity,"[2]; donor 500 μM, acceptor β-benzyl-GlcNAc 25 mM",27.3 pmol/min/ng
same,UDP-GlcNAc → GlcNAc GlcNAc-T activity,[3],8.2 pmol/min/ng
same,catalytic constant (kcat) relative to wild type,[4]; Gal-T1 reaction,comparable with the wild type
same,Km for the acceptor relative to wild-type Gal-T1,[4]; Gal-T reaction,~20 fold
same,"KA (true Km of the donor), Gal-T",[4]; UDP-galactose → GlcNAc,75 (1) μM
same,"KB (true Km of the acceptor), Gal-T",[4]; UDP-galactose → GlcNAc,198 mM
same,"Kcat., Gal-T","[4]; UDP-galactose → GlcNAc, unit assumed",8.5 s⁻¹
same,"catalytic constant (kcat), fold higher",[5]; GalNAc reaction,3-5 fold
same,"KA (true Km of the donor), GalNAc-T",[5]; [11],854 (8) μM
same,"KB (true Km of the acceptor), GalNAc-T",[5]; [11],51 (1) mM
same,"Kcat., GalNAc-T",[5]; [11],4.0
same,GalNAc-T activity,[6]; +LA 55 μM,3.3 pmol/min/ng
same,GalNAc-T activity,[6]; −LA,31.3 pmol/min/ng
same,GalNAc-T activity,[7]; +LA 55 μM,34.8 pmol/min/ng
same,GalNAc-T activity,[7]; −LA,2.6 pmol/min/ng
same,acceptor preference of GalNAc transfer,[7]; in the presence of LA,transfer GalNAc preferably to Glc rather than to GlcNAc
same,GalNAc-T activity,[8]; +LA 55 μM,5.0 pmol/min/ng
same,GalNAc-T activity,[8]; −LA,1.8 pmol/min/ng
B2,specific activity after elution from UDP-agarose versus before loading,[9]; folded under condition I,6 fold
same,stability against cleavage within the stem region,[10],only after long periods of time
B3,specific activity before and after binding on UDP-agarose columns,[9]; condition I or VIII,did not change
